Reference: paper PMC12302718, “Molecular basis for Gβγ-SNARE-mediated inhibition of synaptic vesicle fusion” (The Journal of Biological Chemistry, 2025)
One block for each binder: values may come before it. Where no end group is shown, it is not given here.

Columns and labels:
Details in all cases: both partners purified
biotinylated SNAP25 = target: T1, biotinylated SNAP25 (UniProt P60880 1-206, biotin (site not stated)); assay: AlphaScreen or HTRF; competition: Gγ peptides 1 nM-100 μM; 20 nM biotinylated SNAP25 on streptavidin donor beads, 180 nM His6-Gβ1γ2 on nickel chelate acceptor beads; 20 mM HEPES pH 7.0, 10 mM NaCl, 40 mM KCl, 5% glycerol, 0.01% Triton X-100; 27 °C
T1 construct: SNAP25, wild type; also called full-length SNAP25; synaptosomal-associated protein-25; source: expressed and purified as described (12, 39)

[1] = target: T2, His-tagged soluble Gβ1γ2 (C68S) (UniProt P62873 1-340; P59768 1-71, C68S); assay: AlphaScreen or HTRF; competition: SNAP25 C-terminal peptide (189-206) against biotinylated full-length SNAP25 for His6-Gβ1γ2
T2 construct: G-protein subunit β1 (Gβ1); G-protein subunit γ2 (Gγ2) with C68S (soluble); it is entered on Gβ1; For MST the His tag was labelled with Red-tris-NTA; also called full-length Gβ1γ2; His6-Gβ1γ2; source: Sf9 cells, purified as previously described (69)

[2] = target: T3, His-tagged soluble Gβ1γ2 (C68S) (UniProt P62873;P59768, C68S); assay: AlphaScreen or HTRF; competition: Nb5 0.4 nM-1.26 μM; biotinylated SNAP25 with an EC80 concentration of His-tagged Gβ1γ2
T3 construct: G-protein subunit β1 (Gβ1); G-protein subunit γ2 (Gγ2) with C68S (soluble); it is entered on Gβ1; For MST the His tag was labelled with Red-tris-NTA; also called full-length Gβ1γ2; His6-Gβ1γ2; source: Sf9 cells, purified as previously described (69)

[3] = target: T3, His-tagged soluble Gβ1γ2 (C68S); assay: AlphaScreen or HTRF; direct binding: 20 nM biotinylated Nb5 with 0.1 nM-1 μM His-tagged Gβ1γ2; concentration-response curves fitted for EC50

B1: Gγ5, res. 49–63 peptide (peptide)
peptide: LTGVSSSTNPFRPQK
modifications: on the array: C-terminus coupled to the membrane
notes: Gγ5, human, residues 49-63; source: synthetic peptide: SPOT array on membrane (ResPep SL)
- IC50 (biotinylated SNAP25): 1720 nM

B3: Gγ1, res. 1–15 peptide (peptide)
peptide: MPVINIEDLTEKDKL
notes: Gγ1, human, residues 1-15; also called Gγ1 N-terminal peptide; source: peptide stock in DMSO
- IC50 (biotinylated SNAP25): > 100000 nM

B4: Gγ2, res. 1–15 peptide (peptide)
peptide: MASNNTASIAQARKL
modifications: on the array: C-terminus coupled to the membrane
notes: Gγ2, human, residues 1-15; also called Gγ2 N-terminal peptide; Gγ2 amino-terminal peptide; source: synthetic peptide: SPOT array on membrane (ResPep SL)
- IC50 (biotinylated SNAP25): 540 nM

B9: Gγ2, res. 52–66 peptide (peptide)
peptide: TPVPASENPFREKKF
modifications: on the array: C-terminus coupled to the membrane
notes: Gγ2, human, residues 52-66; also called Gγ2 peptide 18 (by the array's scheme of 15-mers shifted by three); source: synthetic peptide: SPOT array on membrane (ResPep SL)
- IC50 (biotinylated SNAP25): 12600 nM

B10: Gγ3, res. 13–27 peptide (peptide)
peptide: IGQARKMVEQLKIEA
modifications: also: C-terminus coupled to the membrane
notes: Gγ3, human, residues 13-27; source: synthetic peptide: SPOT array on membrane (ResPep SL)
- IC50 (biotinylated SNAP25): 4040 nM

B11: Gγ3, res. 56–70 peptide (peptide)
peptide: ITPVPTSENPFREKK
modifications: on the array: C-terminus coupled to the membrane
notes: Gγ3, human, printed as residues 56-70; source: synthetic peptide: SPOT array on membrane (ResPep SL)
- IC50 (biotinylated SNAP25): 7010 nM

Next, values leading:

- IC50 (biotinylated SNAP25): 640 nM
B2: Gγ8, res. 52–66 peptide (peptide)
peptide: PVPAAENPFRDKRLF
modifications: on the array: C-terminus coupled to the membrane
notes: Gγ8, human, residues 52-66; source: synthetic peptide: SPOT array on membrane (ResPep SL)

- IC50 [1]: 1840 nM
Binder: KTRIDEANQRATKMLGSG (peptide, UniProt P60880 189-206, looked up, also called C-terminal SNAP25 peptide) [SNAP25 C-terminal peptide (residues 189–206)]

- IC50 [2]: 24.6 nM
B5: Nanobody-5 (Nb5) (VHH)
VHH: QVQLVESGGGLVQAGGSLRLSCAASGSIFSINAMGWYRQAPGKQRELVAAITRGGRTNYADSVKGRFTLSRDNAKNTVYLQMNSLKPEDTAVYYCNVGRSRGYWGQGTQVTVSS
notes: as the chain of m17; source: expressed and purified as described previously (53); plasmid a gift of the Palczewski laboratory

- EC50 [3]: 3.72 nM
B6: biotinylated Nb5 (VHH)
VHH: B5 VHH
notes: also called Nanobody-5; source: expressed and purified as described previously (53); plasmid a gift of the Palczewski laboratory

- IC50 (biotinylated SNAP25): 430 nM
B7: Gγ10, res. 4–18 peptide (peptide)
peptide: GASASALQRLVEQLK
modifications: on the array: C-terminus coupled to the membrane
notes: Gγ10, human, residues 4-18; source: synthetic peptide: SPOT array on membrane (ResPep SL)

- IC50 (biotinylated SNAP25): 2910 nM
B8: Gγ12, res. 7–21 peptide (peptide)
peptide: STNNIAQARRTVQQL
modifications: on the array: C-terminus coupled to the membrane
notes: Gγ12, human, residues 7-21; source: synthetic peptide: SPOT array on membrane (ResPep SL)

- IC50 (biotinylated SNAP25): 9460 nM
B12: Gγ13, res. 16–30 peptide (peptide)
peptide: LKYQLAFQREMASKT
modifications: on the array: C-terminus coupled to the membrane
notes: Gγ13, human, residues 16-30; source: synthetic peptide: SPOT array on membrane (ResPep SL)
